Assay results taken from the nanobody polyreactivity screen of Harvey et al. (2022).

Assay: yeast display, Sf9 membrane polyspecificity reagent, FACS + sequencing; frameworks hold sequencing errors
In short: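 Galactose-induced (36–48 hours) yeast carrying a synthetic nanobody display library were exposed to 10% biotinylated, detergent-solubilized Sf9 membrane reagent at 4 °C for 1 hour. FACS followed streptavidin microbead enrichment, using low and high (top ~1%) gates for expression (anti-HA) and reagent binding (streptavidin). Colony PCR, MiSeq 2 × 250 sequencing and CDR-length filtering followed. Labels for polyreactivity reflect the gate of origin.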

Row | Sequence | polyreactivity (PSR sort gate)
1 | QVQLVESGGGLVQAGGSLRLSCAASGRIFYGYTMGWYRQAPGKERELVASITIRGSRTYYADSVKGRFTISRDNAKNSVYLQMNSLKPEDTAVYYCAADFVPARTVHRYDYWGQGTQVTVSS | low polyreactivity
2 | QVQLVESGGGLVQAGGSLRLSCAASGSTFSPYAMGGSRQAPGKEREVVAAINSGSSTNYADSVKGRFTISRDNAKNTVYFQMNSLKPEDTAVYYCAADGQLPPRGILASWEFDYWGQGTQVTVSS | low polyreactivity
3 | QVQLVESGGGLVQAGGSLRLSCAASGFTFGLYGMGWYRQAPGKERELVAAISSSGGDTYYADSVKGRFTISRDNAKNTVYLQMNSLKPEDTAVYYCAATADWATHDYWGQGTQVTVSS | low polyreactivity
4 | QFQIVESGGGLVQAGGSLRLSCDASGSIFTWYAMGWYRQAPGKERELVAAITRGGSTYADSVKGRFTISRDNAKNSVYLQMNSLKPEDTAVYYCNAVYGVYDFNYWGQGTQVTVSP | low polyreactivity
5 | QVQLVESGGGLVQAGGSLRLSCAASGRIFRGYAMGWYRQAPGKERELVAAITSRGGSTYADSVKGRFTISRDNAKNTVYLQMNSLKPEDTAVYYCNAGYRAYSSKLVFRGYPRYDYWGQGTQVTVSS | low polyreactivity
6 | QVQLVESGGGLVQAGGSLRLSCAASGRTFAYYAMGWYRQAPGKERELVSTITWSDGSTYADSVKGRFTISRDNAKNTVYLQMNSLKPEDTAVYYCAAQGWSWYWYYFYLFDYWGQGTQVTVSS | high polyreactivity
7 | QVQLVESGGGLVQAGGSLRLSCAASGSTFDAYAMGWYRQAPGKERELVAAITWSGGSTYYADSVKGRFTISRDNAKTTVYLQMNSLKPEDTAVYYCAAYYLIFYFEFDYWGQGTQVTVYS | low polyreactivity
8 | QVQLVESGGGLVQAGGSLRLSCAASGSTFYIYAMGWYRQAPGKEREFVAAISRTGGSTYYADSVKGRFTISRDNAKNTVYLQMNSLKPEDTAVYYCAAEYKGFRGRYDYWGQGTQVTVSS | high polyreactivity
9 | QVQLVESGGGLVQSGGSLRLSCAASGIIFEYYDMGWYRQAPGKEREFVAAIDSGGSTYYADSVKGRFTISRDNAKNTVYLQMNSLKPEDTAVYYCAASRPPNTSNTGYGSWGQGTQVTVSS | low polyreactivity
10 | QVQLVESGGGLVQAGGSLRLSSAASGSTFVQNAMGWYRQAPGKERELVAAISRGGTSTYYADSVKGRFTISRDNAKNTVYLQMNSLKPEDTAVYYCAAYTSYLGYPYDYWGQGTQVTVSS | high polyreactivity
11 | QDQLVETGGGLVQAGGSLRLSCAASRNTFAQKAMGRSRQAPGKERELVAAITDGTSTNYADSVKGRFTISRDNAKNTVYLQMNSLKPEDKAVYYCAAESLYTLFYWGYDYWGQGTQVTVSS | low polyreactivity
12 | QVQLVESGGGLVQAGGRLRLSCAASGFTFYWNAMGWYRQAPGKERELVAAINWRGTSTYYADSVKGRFTISRDNAKNTVYLQMNSLKPEDTAVDYCNTYVYVEYDWGQGTQVTVSS | high polyreactivity
13 | QVQLVESGGGLVQAGGSLRLSCAASGITFNLYAMGWYRQAPGKERELVASINSGGSPYYADSVKGRFTISRDNAKNTVYLQMNSLKPEDTAVYYCAAETSYYYRGYWKSYDYWGQGTQVTVSS | high polyreactivity
14 | QVQLVESGGGLVQAGGSLRLSCAASGSIFWINAMGGYRQAPGKEREVVADIDVSGGSTYYADSVKGRFTISRDNAKNTVYLQMNSLKPEDTAVYYCAADAWVRTYHYGYWGQGTQVTVSS | low polyreactivity
15 | QVQLVESGGGLVQAGGSLRLSCAASGRIFYSYAMGWYRQAPGKERELVAAITESGGSTNYADSVKGRFTISRDNAKNTVYLQMNSLKPEDTAVYYCNARYKLTFNLYNYWGQGTQVTVSS | low polyreactivity
16 | QVHLVESGGGLVQAGGSLRLSCAASGRILNWNAMGWYRQAPGKDREFVAAIRTSGGDSTSYADSVKGRFTISRDNAKNTVYLQMTSLKPEDTAVFDCAKTVWWYYRYPFDYWGQGTQVTVSS | low polyreactivity

Row | Sequence | polyreactivity (PSR sort gate)
17 | QVQLVESGGGLVQAGGSLRLSCAASGRTFEIYAMGWYRQAPGKERDLVAAITSGGSTYYADSEKGRFTISRDNAKNTVYLQMNSLKPEDTAVYYCAADSSLYGVIRDFDYWGQGTQVTVSS | high polyreactivity
18 | QVQLVESGGGLVQAGGSLRLSCAASGRIFTTYAMGWYRQAPGKERELVARISSGGTTYYADSVKGRFTISRDNAKNTVYLQMNSLKPEDTAVYYCNVRAVTPTRSRPFRYDYWGQGTQVTVSS | high polyreactivity
19 | QVQLVESGGGLVQAGGSLRLSCAASGFIFYYNAMGWYRQAPGKERELVASISFSGGSTYYADSVKGRFTISRDNAKNTVYLQKNSLKPEDTAVYYCAARYPGGRPWPRYYYWGQGNQVTVSS | high polyreactivity
20 | QVQLVESGGGLVQAGGSLRISCAASGRTFVGNAMGWYRQAPGKERELVAAMTLSDGSTYYADSVKGRFTISRDIAMNTVYLQMNSLKPEDTAVYYCNAGDGPDEEYDYWGQVTQVTVSS | low polyreactivity
21 | QVQLVESGGGLDQAGGSLRLSFAASGSTFVPNVMGWYRQAPGKERELVASITSGGITNYADSVKGRFTISRDNAKNTVYLQMNSLKPEDTAVKGDYWGQGTQVTVSS | low polyreactivity
22 | QVQLVESGVGLVQAGGSLRLSCAASGFTFPSYTMGWYRQAPGKERELVAAITSGGITYYADSVKGRFTISRDNANYTVYLQMNSLKPEDTAVYYCAVVNFRTSVYYPYRTMDYWGQGTQVTVSS | high polyreactivity
23 | QVQLVESGGGLLQAGGSLRLSCAASGSIFRRYAMGWYRQATGKERELVAAISRSGSSTYADSVKGRFTISRDNAKNTVYLQMNSLKPEDTAVYYCAASYAFLYYGYDSWGHGTQVTVSS | low polyreactivity
24 | QVQLVESGGGLVQAGGSLRLSCAASGRTFASYVMGWYRQAPGKERELVAAIDWHTGSTYYADSVKGRFTISRDNAKNTVYLQMNSLKPEDTAVYYCAAVYFLYPEGYWQTLYEYYYWGQGTQVTVSS | low polyreactivity
25 | QVQLVESGGGLVQAGGSLRLRCATSGSIFRIYAMGWYRQAPGKERELVAAIDSGGSTNYADYVKGRFTISRDNAKNTVYFQMNCLKPEDTAVFYCNVEAWWLSYSEYDYWGQGTQVTVSS | high polyreactivity
26 | QVQLQESGGGQVQAGGSLRLSCAASGTISPLPAMGWYRQAPGKEREFVAGIDTGAITNYADSVKGRFTISRDNAKNTVYLQMISLKPEDTAVYYCAVFPAAYDYYERYYTYWGQGTQVYVSS | low polyreactivity
27 | QVQLVESGGGLVQAGGSLRLSCAASGSTFVINAMGWYRQAPGKERELVADIDYRGGSTNYADSVKGRFTISRDNAKNTVYLQMNSLKPEDTAVYYCNKRYVIRRRGYDYWGQGTQVTVSS | low polyreactivity
28 | QVQLVESGGGLVQAGGSLRLSCAASGSTFRLYAMGWYRQAPGKERELVAAISSRGGSTYYADSVKGRFTISRDNAKNTVYLQMNSLKPEDTAVYYCATDYITPSSEGDYWGQGTQVTVTS | high polyreactivity
29 | QVQLVESGGGLVQAGGSLRLSCAASGSTSYLYPMGWDRQAPGKERELVAAISWNGGSTYYADSVKGRFTISLDNAKNTVYLQMNSLKPEDTAVYYCAASVHATSFSGGRHWFKLYYWGQGTQVTVSS | high polyreactivity
30 | QVQLVESGGGLVQAGGSLRLSCAAAGTYKYYAMGWYRQAPGKERELVAASNRGGSTNYADSVKGRFTISRDNAKNTVYLQMNSLKPEDTAVYYCAAERWYVRGRHYFYWGQGTQVTVSS | high polyreactivity
31 | QVQLVESGGGLVQAGGSLRLSCAASGFTFVYYAMGWYRQAPGKERELVPAISWNGGSTYYADSVKGRFTISRDNAKNTVYLQMNCLKPEDTAVYYCAAEYSYRLLQTFYYPYGYWGQGTQVTVSS | high polyreactivity
